What all share (assay): cell-based or functional assay
In assay [1] the target is HIV-1 MGRM-F1-018 Env (pseudovirus) (HIV-1).
The target of assay [2] is HIV-1 Env of pseudovirus MGRM-Chronic-B-003, clade B (HIV-1).
The target of assay [3] is HIV-1 MGRM-C-010 Env (HIV-1).
In assay [4] the target is HIV-1 MGRM-A-002 envelope glycoprotein (Env) (HIV-1).
Assay [5] concerns the target HIV-1 Env of pseudovirus VLGCB3, clade B (HIV-1).
In assay [6] the target is HIV-1 Env of isolate MGRM-G-014 (clade G pseudovirus) (HIV-1).
Assay [7] deals with HIV-1 CMU02 envelope glycoprotein (Env) on pseudovirus (HIV-1).
Assay [8] deals with HIV-1 APV-17 envelope protein (Env) on pseudovirus (HIV-1).
In assay [9] the target is HIV-1 Env of pseudovirus SC422661.8 (Acute), clade B (HIV-1).
Assay [10] deals with HIV-1 94UG103 envelope protein (Env) on pseudovirus (HIV-1).
Assay [11] deals with HIV-1 MGRM-F1-015 Env (pseudovirus) (HIV-1).
In assay [12] the target is HIV-1 93UG077 envelope glycoprotein (Env) (HIV-1).
The target in assay [13] is HIV-1 MGRM-C-019 Env (HIV-1).
The target in assay [14] is HIV-1 Env of isolate 92UG024 (clade D) (HIV-1).
The target of assay [15] is HIV-1 MGRM-C-015 Env (HIV-1).
The target in assay [16] is HIV-1 Env of isolate MGRM-G-011 (clade G pseudovirus) (HIV-1).
In assay [17] the target is HIV-1 Env of isolate 92TH021 (HIV-1).
Assay [18] has as its target HIV-1 MGRM-A-004 envelope glycoprotein (Env) (HIV-1).
The target of assay [19] is HIV-1 MGRM-A-008 envelope glycoprotein (Env) (HIV-1).

Chain of 1443_C16 (PG16) (TCN-116) (antibody) (VH): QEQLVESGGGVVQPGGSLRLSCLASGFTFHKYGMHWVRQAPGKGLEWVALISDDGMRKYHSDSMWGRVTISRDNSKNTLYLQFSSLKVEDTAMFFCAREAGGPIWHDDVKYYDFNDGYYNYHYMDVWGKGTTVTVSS
Chain of 1443_C16 (PG16) (TCN-116) (antibody) (VL): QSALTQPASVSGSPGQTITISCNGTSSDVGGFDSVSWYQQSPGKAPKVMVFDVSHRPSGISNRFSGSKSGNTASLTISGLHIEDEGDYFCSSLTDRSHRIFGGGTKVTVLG

As to 2G12 (antibody), the IC50 (µg/ml), pseudovirus neutralization in [1] is greater than 50 µg/mL; in assay [2], 0.06 µg/mL; in assay [4] it was greater than 50 µg/mL; in [5] it was 7.9 µg/mL; in assay [6], greater than 50 µg/mL; in [9], 0.84 µg/mL. For the same substance, the IC50 (µg/ml), pseudovirus neutralization in assay [11] was greater than 50 µg/mL; in assay [12] it was greater than 50 µg/mL; in assay [14], 0.42 µg/mL; in assay [16], greater than 50 µg/mL; in [17], greater than 50 µg/mL; in assay [18] it was greater than 50 µg/mL. Besides, in [19], the IC50 (µg/ml), pseudovirus neutralization is greater than 50 µg/mL. The IC50 in assay [3] was greater than 50 µg/mL; in [13], greater than 50 µg/mL; in [15] it was 1.75 µg/mL. In [7], this substance registered an IC90 (pseudovirus neutralization) greater than 50 µg/mL. Moreover, the neutralization IC50 in assay [8] and in [10] was greater than 50 µg/mL each time.
Take 4E10 (antibody): the IC50 (µg/ml), pseudovirus neutralization in [1] worked out at 3.6 µg/mL; in assay [2], 3.5 µg/mL; in assay [4] it was 6.45 µg/mL; in [5], 5.76 µg/mL; in assay [6] it was 13.7 µg/mL; in assay [9], 6.35 µg/mL. For the same substance, the IC50 (µg/ml), pseudovirus neutralization turned out to be 0.53 µg/mL in assay [11]; 10.6 µg/mL in assay [12]; 2.17 µg/mL in [14]; 1.44 µg/mL in assay [16]; 1.17 µg/mL in assay [17]; 3.14 µg/mL in assay [18]. This substance also registered an IC50 (µg/ml), pseudovirus neutralization in assay [19] of 7.59 µg/mL. In addition, the IC50 in assay [3] was found to be 11 µg/mL; in assay [13] it was 3.49 µg/mL; in assay [15], 2.52 µg/mL. The IC90 (pseudovirus neutralization) in assay [7] was found to be 13.4 µg/mL. Besides, the results for the neutralization IC50 in assay [8] and in assay [10] were 5.1 µg/mL and 9.7 µg/mL, respectively.
Consider 1443_C16 (PG16) (TCN-116) (antibody), for which the IC50 (µg/ml), pseudovirus neutralization in assay [1] worked out at 0.01 µg/mL; in [2] it was 0.19 µg/mL; in [4], 0.004 µg/mL; in [5], 0.4 µg/mL; in assay [6], 6.98 µg/mL; in [9], 1.13 µg/mL. Besides, the IC50 (µg/ml), pseudovirus neutralization in [11] is greater than 50 µg/mL; in assay [12], greater than 50 µg/mL; in [14], 24 µg/mL; in assay [16] it was 0.04 µg/mL; in assay [17], 0.1 µg/mL; in assay [18], 0.04 µg/mL. For the same substance, the IC50 (µg/ml), pseudovirus neutralization in assay [19] is greater than 50 µg/mL. Besides, the IC50 in assay [3] is greater than 50 µg/mL; in assay [13] it was 0.002 µg/mL; in assay [15], 0.26 µg/mL. The substance further showed an IC90 (pseudovirus neutralization) in assay [7] greater than 50 µg/mL. Also, the neutralization IC50 in assay [8] was greater than 50 µg/mL; in assay [10], 0.008 µg/mL.

For orientation: IC50 means the concentration that gives 50% inhibition. A lower IC50 goes with greater potency.

Source of the values: US20200024330A1.
